How the values were obtained:
Format in all cases: cell-based
[1] = system: cultured rat hepatocytes; test: EGF-R and proliferation signaling pathways (Western blot of phosphorylation) in cultured rat hepatocytes
Procedure: (§1) Hepatocytes were isolated from male Wistar rats (150 g) and C57/BL6 mice (20 g) by perfusion with collagenase (Gibco-BRL, Paisley, UK) as described elsewhere [(18), (20)]. Cells (5×10^5 cells per well) were plated onto 6-well plates coated with collagen (type I collagen, Collaborative Biomedical, Bedford, Mass., USA). Cultures were maintained in MEM medium supplemented with 10% fetal calf serum (FCS), non-essential amino acids, glutamine 2 mM and antibiotics (all supplied by Gibco-BRL). After 2 h of incubation, the medium was removed and cells were again cultured in the same medium with 5% FCS. Where applicable, hepatocytes were treated with IL-1β or TNFα from Roche (Mannheim, Germany), HGF or forskolin from Calbiochem (San Diego, Calif., USA), IL6 from RD Systems (Wiesbaden-Nordenstadt, Germany), or PGE2 from Alexis QBiogene (Carlsbad, Calif., USA).
(§2) Homogenates from liver samples and isolated hepatocytes were subjected to Western blot analysis as described elsewhere [(19, (20)]. Antibodies used were: affinity purified and biotinylated polyclonal antibody specifically targeted to murine AR (BAF989)(RD Systems); specific antibodies for the p17 subunit of active caspase-3 (9664S), phosphorylated Akt (Ser473) (9271S) and phosphorylated STAT3 (Tyr^705) (9131S) (Cell Signaling, Beverly, Mass., USA); ERK1/2 (06-182), phosphorylated EGF-R (Tyr^1173)(05-483) and STAT3 (06-596)(Upstate Biotechnology, Charlottesville, Va., USA). All other antibodies were from Santa Cruz Biotechnology (Santa Cruz, Calif., USA): BclxL (sc8392), Bcl2 (sc7382), EGF-R (sc-03), phosphorylated ERK1/2 (Tyr^204) (sc7383), Akt (sc5298), JNK (sc571), and phosphorylated JNK (Thr^183/Tyr^185) (sc6254).

[2] = system: cultured mouse hepatocytes; test: Antiapoptotic signaling pathways (Western blot of phosphorylation) in cultured mouse hepatocytes; settings: AR 20 nM, different times
Procedure: as §1, §2

[3] = system: mouse hepatocytes in primary culture; test: Apoptosis induced by actinomycin D and Jo2 antibody in mouse hepatocytes in primary culture
From the text: In order to determine whether the in vivo antiapoptotic effects of AR could be mediated by direct action of AR on liver parenchymal cells, the inventors used mouse hepatocytes in primary culture. It has been reported that hepatocytes exposed to Jo-2 antibodies undergo apoptosis effectively in presence of actinomycin D [(5), (6), (33) Ni, R., Tomita, Y., Matsuda, K., Ichiara, A., Ishimura, K., Ogasawara, J., Nagata, S. 1994. Fas-mediated apoptosis in primary cultured mouse hepatocytes. Exp. Cell Res. 215: 332-337]. Hepatocytes were pretreated with different concentrations of AR during […] before addition of actinomycin D and Jo2 antibody. Measurements of apoptosis and related molecular events, were made 18 h later. […] Likewise, they found antiapoptotic protein Bcl-xL to be induced by treatment with AR in mouse hepatocytes treated with Jo2 (FIG. 4B). In order to identify the AR antiapoptotic signaling mechanisms, PI-3K/Akt and ERK1/2 pathways were studied, as they are general mediators of cell survival [(4), (6)]. […] A key signaling molecule implicated in protection against liver damage induced by Fas is STAT3 [(34) Shen, Y., Devgan, G., Darnell, J. E., Bromberg, J. F. 2001. Constitutively activated Stat3 protects fibroblasts from serum withdrawal and UV-induced apoptosis and antagonizes the proapoptotic effects of activated Statl. Proc. Natl. Acad. Sci. USA. 98: 1543-1548. (35) Haga, S., Terui, K., Zhang, H. Q., Enosawa, S., Ogawa, W., Inoue, H., Okuyama, T., Takeda, K., Akira, S., Ogino, T., et al. 2003. Stat3 protects against Fas-induced liver injury by redox-dependent and -independent mechanisms. J. Clin. Invest. 112: 989-998].
as §1
Apoptosis was induced in cultured mouse hepatocytes by treatment with 0.5 μg/ml of Jo2 antibody and 0.05 μg/ml of actinomycin D as described elsewhere (5). Where applicable, the hepatocytes were treated with AR 6 h before the addition of Jo2 antibody and actinomycin D. Apoptosis was estimated by determining soluble histone-DNA complexes using the Cell Death Detection Assay (Roche). ELISA tests for determining cell death were carried out following the manufacturer's instructions. The specific enrichment of mono- and oligonucleosomes released in the cytoplasm (enrichment factor, EF) was calculated as the ratio between the absorbance values of the samples corresponding to treated cells and control cells. […]
Caspase-3 activity in mouse hepatocytes and liver tissue lysates was assessed using the Caspase-3/CPP32 colorimetric assay kit (BioVision, Palo Alto, Calif., USA). […]

[4] = rat hepatocytes, different times after addition of AR

B1: amphiregulin (protein)
chain: SVRVEQVVKPPQNKTESENTSDKPKRKKKGGKNGKNRRNRKKKNPCNAEFQNFCIHGECKYIEHLEAVTCKCQQEYFGERCGEKSMKTHSMIDSSLSK
notes: polypeptide growth factor belonging to the EGF family, ligand of EGF receptor; human recombinant AR (Sigma) used
B1 was tested, and the “phosphorylation of EGF-R on tyrosine residues” value ([1]; isolated rat hepatocytes treated with AR) was “rapid and transient phosphorylation”, the JNK phosphorylation [1, 4] was “observed JNK phosphorylation” and the “phosphorylation of Akt” value [1, 4] was “rapidly induces phosphorylation”. The “phosphorylation of ERK1/2” value [1, 4] was “rapidly induces phosphorylation”, the “phosphorylation of Akt” value [2] was “increased phosphorylation” and the “phosphorylation of ERK1/2” value [2] was “increased phosphorylation”. The “phosphorylation of STAT3” value [2] was “stimulate phosphorylation”, the “antiapoptotic protein Bcl-xL (Western blot)” value ([3]; AR 20 nM, mouse hepatocytes treated with Jo2) was “induced” and the “proteolysis and activation of caspase-3 induced by Jo2 antibody” value ([3]; AR 20 nM, mouse hepatocytes treated with actinomycin D and Jo2) was “significantly inhibited”. The “apoptosis (enrichment factor of mono- and oligonucleosomes)” value ([3]; increasing concentrations of AR before actinomycin D and Jo2, measured 18 h later) was “protected from apoptosis by AR in a dose-dependent manner”.
